Results from US20020040062A1, “Protein kinase C activators and their use in decreasing expression of cell antigens” (The Trustees of Columbia University, priority 1993, published 2002).

Legend:
Type in all cases: cell-based, human
BCA 225 [1] = test: BCA 225 shedding into culture medium, double-determinant ELISA; conditions: T47D cells
Protocol: (§1) After appropriate incubation times with the various compounds cell lysates were prepared from T47D cells. Cells were washed 3× in PBS, pH 7.6, pelleted and incubated for 1 hr at room temperature in 20 mM Tris HCl, pH 7.4, with PMSF. Cultures were then homogenized with a Teflon homogenizer, centrifuged at 3000 RPM for 10 min at 4° C. and the supernatant was mixed 1:2 with 20 mM Tris-HCl, pH 7.4, containing 0.5% NP40 (Sigma). After 1 hr at 4° C., the mixture was spun at 3000 RPM for 10 min and the supernatant was passed through an EXTRACTIGEL column (Pierce, Ill.) to remove excess detergent. Protein concentration was determined by the BCA micro-method (Pierce, Ill.). BCA 225 levels in cell extracts and supernatants from control and treated T47D cells were quantitated using a double-determinant ELISA assay. Briefly, Cu18 monoclonal antibody coated Nunc Immunoplates (Nunc, Denmark) were blocked with 1% BSA (Sigma, RIA Reagent Grade) and incubated with a 1:2 dilution of supernatant in duplicate. Standard values for a partially purified BCA 225 preparation were used at a range of 0 to 10 μg/ml in RPMI 1640 plus 10% FBS (T47D growth medium). After 2 hr incubation and three washings with PBS 0.1% Tween 20 a Cu46 monoclonal antibody conjugated to peroxidase was applied to the plate, incubated for 2 hr, washed 6× in PBS 0.1% Tween 20 and the reaction was developed with […] OPD (Sigma, St. Louis) and 4 μl of 30% H2O2 in McIlvans buffer, pH […]. The plates were read on a Dynatech Elisa reader and a linear standard curve was generated and used to calculate the relative amount of BCA 225 in cell lysates and shed into the culture medium. Results were adjusted to ng BCA 225 per mg of protein, or per 1×10^6 cells. Replicate samples varied by ≦10% and replicate experiments varied by ≦20%.

BCA 225 [2] = test: FACS analysis of BCA 225 surface expression in T47D cells; conditions: 72 hr
Source text: (§2) IgG1 murine monoclonal antibody Cu18 and Cu46 recognize two different epitopes of a highly restricted breast carcinoma associated glycoprotein of Mr 225,000 to 250,000 (BCA 225). This TAA is expressed intracytoplasmically and on the membrane of 94% of breast tumors tested and in the T47D human breast carcinoma cell line. BCA 225 is shed into the culture medium by T47D cells and into the sera of breast cancer patients. IgG2a monoclonal antibody L243 (anti HLA Class II-DR) recognizes a monomorphic HLA Class II-DR-α epitope (ATCC M355). Monoclonal antibody CL203.4 [40], which recognizes ICAM-I, was kindly provided by Dr. S. Ferrone, New York Medical College, NY. The c-erbB-2 monoclonal antibody which recognizes the extracellular domain of c-erbB-2 was obtained from Triton Biosciences, Inc., Alamedia, Calif. Monoclonal antibodies Cu18 and Cu46 were used at 0.05 μg/ml and monoclonal antibodies interacting with HLA Class II-DR, ICAM-1 and c-erbB-2 were used at 10 μg/ml. For each experiment, isotype matched control backgrounds (IgG for Cu18, Cu46 and ICAM-1, IgG2a for HLA Class Ii and IgG2b for c-erbB-2) were subtracted from the experimental results. Background from antimouse IgG FITC antibody was also subtracted from experimental results. Applicants never observed backgrounds higher than 2% of total cells for isotypic mouse IgG or higher than 5% for antimouse IgG FITC.
(§3) T47D cells treated with the various compounds were analyzed by flow cytometry using appropriate monoclonal antibody concentrations as described previously. Briefly, 1×10^5 cells were incubated with the test antibody for 30 min at 4° C., washed 3× with PBS and incubated with a goat a mouse F (ab)2 FITC conjugated test antibody at a 1:40 dilution for 30 min at 4° C. Cells were then washed 3× with PBS and analyzed on a FACStar (Beckon Dickinson, Mountain View, Calif.) or a Coulter Epics IV FACS (Coulter, Hialeah, Fla.). Results are expressed as mean fluorescence intensity (MFI) units which were determined as described previously. MFI=(mean channel fluorescence in fluorescence positive antibody-binding cells×% of fluorescence positive antibody-binding cells)−(mean channel fluorescence in unstained cells×% of fluorescence positive cells in the unstained population). All studies were performed a minimum of three or four times with duplicate samples in each experiment. Replicate samples within individual experiments varied by ≦10% and variation between experiments were generally ≦20%.

BCA 225 [3] = test: BCA 225 synthesis, double-determinant ELISA of T47D cell lysates; conditions: T47D cells, 72 hr
Protocol: as §1

HLA Class II antigens = test: FACS analysis of HLA Class II antigen surface expression in T47D cells; conditions: for fold increase in HLA Class II expression: 500 units/ml IFN-α, IFN-β or IFN-γ as in Table 3; for HLA Class II relative increase in expression versus untreated controls (equivalent to 1.0): presence or absence of 1.0 μg/ml H-7
Source text: as §2, with “μg/ml.” for “μg/ml. For each experiment, isotype matched control backgrounds (IgG for Cu18, Cu46 and ICAM-1, IgG2a for HLA Class Ii and IgG2b for c-erbB-2) were subtracted from the experimental results. Background from antimouse IgG FITC antibody was also subtracted from experimental results. Applicants never observed backgrounds higher than 2% of total cells for isotypic mouse IgG or higher than 5% for antimouse IgG FITC.”
as §3, with “experiment.” for “experiment. Replicate samples within individual experiments varied by ≦10% and variation between experiments were generally ≦20%.”

[4] = 72 hr, 0.1 μg/ml TPA, 0.1 μg/ml MEZ or 0.25 μg/ml ADMB, presence or absence of 0.1 μg/ml H-7
[5] = 0.1 μg/ml TPA, 0.1 μg/ml MEZ or 0.25 μg/ml ADMB, presence or absence of 0.1 μg/ml H-7
[6] = 72 hr, 500 units/ml IFN-β or 50 units/ml IFN-γ, presence or absence of 1.0 μg/ml H-7
[7] = 500 units/ml IFN-β or 50 units/ml IFN-γ, presence or absence of 1.0 μg/ml H-7
[8] = 72 hr, 500 units/ml IFN-β or 50 units/ml IFN-γ
[9] = 72 hr, 500 units/ml IFN-β or 50 units/ml IFN-γ, presence or absence of 1.0 μg/ml H-7, Coulter Epics IV FACS

Row | Molecule | BCA 225 Shedding (BCA 225 [1]; [4]) | BCA 225 Shedding, level of enhancement relative to control (equivalent to 1.0) (BCA 225 [1]; [4]) | ability to induce shedding of BCA 225 (BCA 225 [1]; Table 2) | BCA 225 Expression, level of enhancement relative to control (equivalent to 1.0) (BCA 225 [2]; [5]) | BCA 225 Expression (BCA 225 [2]; 0.1 μg/ml TPA, 0.1 μg/ml MEZ or 0.25 μg/ml ADMB, presence or absence of 0.1 μg/ml H-7, CU18 antibody) | BCA 225 Synthesis (BCA 225 [3]; [5]) | BCA 225 Synthesis, level of enhancement relative to control (equivalent to 1.0) (BCA 225 [3]; [5]) | HLA Class II level of upregulation versus untreated control cells (equivalent to 1.0) (HLA Class II antigens; 72 hr, 0.1 μg/ml TPA or MEZ, presence or absence of 0.1 μg/ml H-7) | Antigenic Expression (MFI) HLA Class II (HLA Class II antigens; 72 hr, 0.1 μg/ml TPA or MEZ, presence or absence of 0.1 μg/ml H-7, FACStar) | BCA 225 Shedding (BCA 225 [1]; [6]) | BCA 225 Shedding, relative change in comparison with controls (equivalent to 1.0) (BCA 225 [1]; [6]) | BCA 225 Expression (BCA 225 [2]; [7]) | BCA 225 Expression, relative change in comparison with controls (equivalent to 1.0) (BCA 225 [2]; [7]) | BCA 225 Synthesis (BCA 225 [3]; [7]) | BCA 225 Synthesis, relative change in comparison with controls (equivalent to 1.0) (BCA 225 [3]; [7]) | fold increase in HLA Class II expression (HLA Class II antigens) | HLA Class II relative increase in expression versus untreated controls (equivalent to 1.0) (HLA Class II antigens; [8]) | Antigenic Expression (MFI) HLA Class II (HLA Class II antigens; [9])
1 | C=C(C)[C@@]12O[C@@]3(c4ccccc4)O[C@@H]1[C@@H]1[C@@H]4O[C@]4(CO)[C@@H](O)[C@]4(O)C(=O)C(C)=C[C@H]4[C@@]1(O3)[C@H](C)[C@H]2OC(=O)/C=C/C=C/c1ccccc1 [MEZ, mezerein] | 147 ng/ml/10^6 cells | 5.3 | enhance shedding of BCA 225 | 2.5 | 16,065 MFI | 507 ng/mg protein | 3.1 | (3.0) | 10,260 MFI |  |  |  |  |  |  |  |  | 
2 | IFN-γ: recombinant human immune interferon produced in Escherichia coli (protein, UniProt P01579 24-161, looked up) Interferon gamma: QDPYVKEAENLKKYFNAGHSDVADNGTLFLGILKNWKEESDRKIMQSQIVSFYFKLFKNFKDDQSIQKSVETIKEDMNVKFFNSNKKKRDDFEKLTNYSVTDLNVQRKAIHELIQVMAELSPAAKTGKRKRSQMLFRG |  |  |  |  |  |  |  |  |  | 64 ng/ml/10^6 cells | 1.4 | 9,069 MFI | 3.2 | 722 ng/mg protein | 3.2 | 69 fold | 69.2 | 202,102 MFI
3 | IFN-β: recombinant human fibroblast interferon with a serine substituted for a cysteine at position 17 (protein, UniProt P01574 22-187, looked up, variant C17S) Interferon beta: MSYNLLGFLQRSSNFQSQKLLWQLNGRLEYCLKDRMNFDIPEEIKQLQQFQKEDAALTIYEMLQNIFAIFRQDSSSTGWNETIVENLLANVYHQINHLKTVLEEKLEKEDFTRGKLMSSLHLKRYYGRILHYLKAKEYSHCAWTIVRVEILRNFYFINRLTGYLRN |  |  |  |  |  |  |  |  |  | 69 ng/ml/10^6 cells | 1.5 | 5,716 MFI | 2.0 | 374 ng/mg protein | 1.7 | 11 fold | 10.8 | 31,413 MFI
